Measurements: patent publication CN116724055A (CANTARGIA S R L, dated 2023)

T1: 重组mfIL1RAP aa21-367 (食蟹猴 (Macaca fascicularis), UniProt A0A2K5X5J5 21-367)
T1 construct: also called 食蟹猴(cyno)IL1RAP
T1 sequence: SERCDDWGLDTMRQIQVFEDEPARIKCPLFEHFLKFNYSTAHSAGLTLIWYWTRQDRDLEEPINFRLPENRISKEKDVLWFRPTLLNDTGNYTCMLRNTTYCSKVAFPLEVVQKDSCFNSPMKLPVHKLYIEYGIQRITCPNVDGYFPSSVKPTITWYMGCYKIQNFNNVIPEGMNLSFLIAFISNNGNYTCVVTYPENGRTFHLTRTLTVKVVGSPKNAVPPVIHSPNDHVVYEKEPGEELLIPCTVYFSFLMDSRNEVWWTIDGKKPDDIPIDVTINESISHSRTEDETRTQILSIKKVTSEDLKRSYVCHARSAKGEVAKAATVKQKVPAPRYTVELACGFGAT

T2: 小鼠IL1RAP (小家鼠 (Mus musculus), UniProt Q61730 21-367, limits assumed)
T2 construct: also called mIL1RAP
T2 sequence (looked up): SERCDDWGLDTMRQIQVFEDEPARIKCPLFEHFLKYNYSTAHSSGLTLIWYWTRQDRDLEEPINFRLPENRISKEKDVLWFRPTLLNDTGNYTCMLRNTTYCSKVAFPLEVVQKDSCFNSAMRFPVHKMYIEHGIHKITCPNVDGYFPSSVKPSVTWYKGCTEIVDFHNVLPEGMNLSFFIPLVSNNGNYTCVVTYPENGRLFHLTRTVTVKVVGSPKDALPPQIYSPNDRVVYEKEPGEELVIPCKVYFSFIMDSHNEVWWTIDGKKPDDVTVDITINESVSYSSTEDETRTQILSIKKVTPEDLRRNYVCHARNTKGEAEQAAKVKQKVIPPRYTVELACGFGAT

T3: 大鼠IL1RAP (褐家鼠 (Rattus norvegicus), UniProt Q63621 21-367, limits assumed)
T3 construct: also called rnIL1RAP
T3 sequence (looked up): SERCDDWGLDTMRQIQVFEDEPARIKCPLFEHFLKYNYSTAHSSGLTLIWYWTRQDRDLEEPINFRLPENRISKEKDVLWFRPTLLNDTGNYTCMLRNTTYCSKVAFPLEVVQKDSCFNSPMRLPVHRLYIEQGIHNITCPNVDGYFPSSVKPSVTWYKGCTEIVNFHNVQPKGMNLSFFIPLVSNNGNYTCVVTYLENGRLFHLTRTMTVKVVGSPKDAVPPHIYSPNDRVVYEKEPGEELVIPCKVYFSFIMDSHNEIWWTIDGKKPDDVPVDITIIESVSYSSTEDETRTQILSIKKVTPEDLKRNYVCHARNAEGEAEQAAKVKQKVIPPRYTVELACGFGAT

T4: 细胞膜上的人IL1RAP (人, UniProt Q9NPH3 21-570)
T4 sequence (looked up): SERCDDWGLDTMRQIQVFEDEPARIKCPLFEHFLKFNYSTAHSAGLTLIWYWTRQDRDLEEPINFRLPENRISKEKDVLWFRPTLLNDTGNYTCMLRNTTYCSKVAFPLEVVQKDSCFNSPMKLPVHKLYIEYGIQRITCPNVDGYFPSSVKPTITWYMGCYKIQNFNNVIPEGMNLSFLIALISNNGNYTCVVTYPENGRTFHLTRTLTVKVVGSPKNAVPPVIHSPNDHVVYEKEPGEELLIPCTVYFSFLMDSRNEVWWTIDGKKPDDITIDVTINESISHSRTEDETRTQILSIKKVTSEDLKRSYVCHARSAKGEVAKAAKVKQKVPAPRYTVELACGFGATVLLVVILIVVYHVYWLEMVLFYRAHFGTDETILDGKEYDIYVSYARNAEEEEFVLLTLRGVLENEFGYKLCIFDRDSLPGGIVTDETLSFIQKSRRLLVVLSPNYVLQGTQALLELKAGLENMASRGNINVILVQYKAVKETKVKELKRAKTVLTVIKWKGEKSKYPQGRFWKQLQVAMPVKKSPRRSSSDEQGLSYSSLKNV


Key:
[1] = biological target: T1, 重组mfIL1RAP aa21-367; assay: binding ELISA, coated mfIL1RAP aa21-367
[2] = biological target: T2, 小鼠IL1RAP; assay: ELISA on coated IL1RAP orthologs
[3] = biological target: T3, 大鼠IL1RAP; assay: ELISA on coated IL1RAP orthologs
[4] = biological target: T4, 细胞膜上的人IL1RAP; assay: cell-based or functional assay
[5] = biological target: T1, 重组mfIL1RAP aa21-367; assay: ELISA on coated IL1RAP orthologs

Row | Binder | binding result [1] | binding result [2] | binding result [3] | other results
1 | h48D2 VH5:VL5 (antibody, human IgG1, kappa, L234A L235A) heavy: not shown light: APVLTQSPATLEASVGDRVTITCQASESISTALAWYQQKPGQPPKLLIYKASTLPSGVPSRFSGSGSGTEFTLTISDLESDDAATYYCQQGFSSGNVHNAFGGGTEVVVKRTVAAPSVFIFPPSDEQLKSGTASVVCLLNNFYPREAKVQWKVDNALQSGNSQESVTEQDSKDSTYSLSSTLTLSKADYEKHKVYACEVTHQGLSSPVTKSFNRGEC | binds |  |  | 
2 | h48D2 VH5:VL4 (antibody, human IgG1, kappa, L234A L235A, V domains shown, also called 人源化48D2变体VH5:VL4) VH: QEQLEESGGGLVKPGGTLSLTCTVSGPSLSHFDITWIRQAPGSGLEWIGTISPGVSTYYASWAKSRVTISVDTSLNTVSLKLSSVTAADTATYFCARGGVGSSWKAFDLWGPGTLVTISS VL: ELVMTQSPSSVSASVGDRVTITCQASESISTALAWYQQKPGKAPKLLIYKASTLPSGVPSRFSGSGSGTDFTLTINSLQPEDFATYYCQQGFSSGNVHNAFGGGTKVEIKR | binds |  |  | 

Further lines, with some results ahead:

Row | binding result [1] | binding result [2] | binding result [3] | Binder | other results
3 |  | no binding | no binding | h48D2 VH5.GL:VL5.GL (antibody, human IgG1, kappa, L234A L235A, humanised and de-immunised variant) heavy: not shown light: DIQMTQSPSTLSASVGDRVTITCQASESISTALAWYQQKPGQPPKLLIYKASTLPSGVPSRFSGSGSGTEFTLTISDLESDDAATYYCQQGFSSGNVHNAFGGGTEVVVKRTVAAPSVFIFPPSDEQLKSGTASVVCLLNNFYPREAKVQWKVDNALQSGNSQESVTEQDSKDSTYSLSSTLTLSKADYEKHKVYACEVTHQGLSSPVTKSFNRGEC | 
4 |  | no binding (tested: 4000ng/ml) | no binding (tested: 4000ng/ml) | 嵌合48D2 (antibody, V domains shown, chimeric rabbit/human IgG1; also called ch48D2; 48D2嵌合(ch)兔/人抗人IL1RAP) VH: QEQLEESGGGLVKPGGSLTLTCTVSGPSLSHFDITWVRQAPGSGLEWIGTISPGVSTYYASWAKSRSTITSNTNLNTVTLKMTSLTAADTATYFCARGGVGSSWKAFDLWGPGTLVTISS VL: APVLTQTPASVEVAVGGTVTIKCQASESISTALAWYQQKPGQPPKLLIYKASTLPSGVSSRFKGSGSGTEFALTISDLECDDAATYYCQQGFSSGNVHNAFGGGTEVVVK | IC50, inhibition of IL-1α signalling, HEK-Blue assay (SEAP, OD 620nM) [4]: 1.92 nM; IC50, inhibition of IL-1β signalling, HEK-Blue assay (SEAP, OD 620nM) [4]: 0.7 nM; IC50, inhibition of IL-33 signalling, HEK-Blue assay (SEAP, OD 620nM) [4]: 2.92 nM; IC50, inhibition of IL-36α signalling, HEK-Blue assay (SEAP, OD 620nM) [4]: 0.0083 nM; IC50, inhibition of IL-36β signalling, HEK-Blue assay (SEAP, OD 620nM) [4]: 0.0081 nM; IC50, inhibition of IL-36γ signalling, HEK-Blue assay (SEAP, OD 620nM) [4]: 0.0111 nM; binding result [5]: binds
5 |  | no binding | no binding | h48D2 VH5.GL:VL4 (antibody, human IgG1, kappa, L234A L235A, V domains shown, also called 48D2变体VH5.GL:VL4; 人源化和去免疫化48D2变体VH5.GL:VL4) VH: QEQLEESGGGLVKPGGTLSLTCTVSGPSLSHFDITWIRQPPGKGLEWIGTISPGVSTYYASWAKSRVTISVDTSLNTVSLKLSSVTAADTATYFCARGGVGSSWKAFDLWGPGTLVTISS VL: ELVMTQSPSSVSASVGDRVTITCQASESISTALAWYQQKPGKAPKLLIYKASTLPSGVPSRFSGSGSGTDFTLTINSLQPEDFATYYCQQGFSSGNVHNAFGGGTKVEIKR | 
